Measured values as given in patent US20190225669A1 (ACCELERON PHARMA, published 2019).
Each block holds one binder with its values, some of them ahead of it.

Assays:
[1] = molecular target: T1, BMP9 (UniProt Q9UK05 320-429); test: Biacore SPR; kinetics indeterminate (transient)
T1 construct: also called GDF2
T1 sequence (looked up): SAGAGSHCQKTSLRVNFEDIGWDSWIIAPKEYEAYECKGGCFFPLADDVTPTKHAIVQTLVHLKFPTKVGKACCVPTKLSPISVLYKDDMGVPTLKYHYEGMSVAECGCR
Experimental: (§1) Ligands were injected and allowed to flow over the captured receptor protein.

[2] = molecular target: T2, BMP5 (UniProt P22003 317-454, limits assumed); test: Biacore SPR
T2 sequence (looked up): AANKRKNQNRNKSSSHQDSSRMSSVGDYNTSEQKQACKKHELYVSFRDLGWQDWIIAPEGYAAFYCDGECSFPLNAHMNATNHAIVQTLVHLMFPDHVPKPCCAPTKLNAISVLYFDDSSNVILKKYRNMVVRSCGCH
Experimental: as §1

[3] = molecular target: T3, activin B (UniProt P09529 293-407); test: Biacore SPR
T3 sequence (looked up): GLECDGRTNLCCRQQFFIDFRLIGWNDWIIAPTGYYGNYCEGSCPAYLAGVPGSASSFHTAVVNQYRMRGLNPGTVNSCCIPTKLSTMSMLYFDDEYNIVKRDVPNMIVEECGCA
Experimental: as §1

[4] = molecular target: T4, GDF3 (UniProt Q9NR23 251-364); test: Biacore SPR
T4 sequence (looked up): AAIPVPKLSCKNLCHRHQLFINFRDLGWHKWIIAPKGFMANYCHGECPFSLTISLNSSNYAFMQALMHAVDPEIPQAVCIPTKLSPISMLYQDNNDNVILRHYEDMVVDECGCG
Experimental: as §1

[5] = molecular target: T5, GDF8 (UniProt O14793 267-375); test: Biacore SPR
T5 construct: also called myostatin
T5 sequence (looked up): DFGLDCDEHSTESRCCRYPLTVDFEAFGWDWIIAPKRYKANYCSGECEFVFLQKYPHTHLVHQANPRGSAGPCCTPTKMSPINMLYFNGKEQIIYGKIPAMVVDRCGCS
Experimental: as §1

[6] = molecular target: T6, activin A (UniProt P08476 311-426); test: Biacore SPR
T6 sequence (looked up): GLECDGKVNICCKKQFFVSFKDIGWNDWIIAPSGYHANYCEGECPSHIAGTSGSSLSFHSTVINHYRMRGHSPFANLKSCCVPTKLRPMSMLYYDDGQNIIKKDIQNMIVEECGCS
Experimental: as §1

[7] = molecular target: T7, BMP10 (UniProt O95393 317-424); test: Biacore SPR
T7 sequence (looked up): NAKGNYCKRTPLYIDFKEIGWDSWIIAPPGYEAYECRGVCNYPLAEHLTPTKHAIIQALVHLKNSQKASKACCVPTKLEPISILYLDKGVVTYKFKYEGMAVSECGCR
Experimental: as §1

[8] = molecular target: T8, BMP6 (UniProt P22004 382-513, limits assumed); test: Biacore SPR
T8 sequence (looked up): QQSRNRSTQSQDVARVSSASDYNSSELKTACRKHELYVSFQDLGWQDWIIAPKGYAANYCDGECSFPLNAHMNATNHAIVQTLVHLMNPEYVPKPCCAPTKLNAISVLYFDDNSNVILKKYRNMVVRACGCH
Experimental: as §1

[9] = molecular target: T9, GDF11 (UniProt O95390 299-407); test: Biacore SPR
T9 construct: also called BMP11
T9 sequence (looked up): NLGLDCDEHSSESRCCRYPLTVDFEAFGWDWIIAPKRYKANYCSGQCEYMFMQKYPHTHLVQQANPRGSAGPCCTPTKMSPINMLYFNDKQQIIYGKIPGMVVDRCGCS
Experimental: as §1

[10] = molecular target: T10, BMP15 (UniProt O95972 268-392); test: Biacore SPR
T10 construct: also called GDF9b
T10 sequence (looked up): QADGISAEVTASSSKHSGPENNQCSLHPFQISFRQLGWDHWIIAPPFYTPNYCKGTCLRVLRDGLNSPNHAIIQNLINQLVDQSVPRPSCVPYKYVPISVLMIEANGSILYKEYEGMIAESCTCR
Experimental: A Biacore™-based binding assay was used to compare ligand binding selectivity of the BMPRII-Fc:ALK2-Fc heterodimeric complex described above with that of BMPRII-Fc and ALK2-Fc homodimeric complexes. […] Ligands were injected and allowed to flow over the captured receptor protein.

[11] = molecular target: T2, BMP5; test: Biacore SPR; remark: listed apart in the source
Experimental: as §1

[12] = molecular target: T3, activin B; test: Biacore SPR; remark: listed apart in the source
Experimental: as §1

[13] = molecular target: T4, GDF3; test: Biacore SPR; remark: listed apart in the source
Experimental: as §1

[14] = molecular target: T5, GDF8; test: Biacore SPR; remark: listed apart in the source
Experimental: as §1

[15] = molecular target: T6, activin A; test: Biacore SPR; remark: listed apart in the source
Experimental: as §1

[16] = molecular target: T11, GDF6 (UniProt Q6KF10 336-455, limits assumed); test: Biacore SPR
T11 construct: also called BMP13
T11 sequence (looked up): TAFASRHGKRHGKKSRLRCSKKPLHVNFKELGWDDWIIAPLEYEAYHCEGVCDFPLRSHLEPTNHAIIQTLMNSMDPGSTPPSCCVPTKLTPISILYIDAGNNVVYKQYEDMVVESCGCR
Experimental: as §1

[17] = molecular target: T7, BMP10; test: Biacore SPR; remark: listed apart in the source
Experimental: as §1

[18] = molecular target: T9, GDF11; test: Biacore SPR; remark: listed apart in the source
Experimental: as §1

Kd [1]: > 1.4 nM | Kd [2]: 57 nM | koff [2]: 0.0085 s⁻¹ | kon [2]: 150000 M⁻¹ s⁻¹ | Kd [3]: 0.017 nM | koff [3]: 0.0002 s⁻¹ | kon [3]: 1.2e+07 M⁻¹ s⁻¹ | Kd [4]: 4.5 nM | koff [4]: 0.01 s⁻¹ | kon [4]: 2.3e+06 M⁻¹ s⁻¹ | Kd [5]: 0.27 nM | koff [5]: 0.001 s⁻¹ | kon [5]: 3.7e+06 M⁻¹ s⁻¹ | Kd [6]: 0.043 nM | koff [6]: 0.0019 s⁻¹ | kon [6]: 4.4e+07 M⁻¹ s⁻¹ | Kd [7]: 0.19 nM | koff [7]: 0.0028 s⁻¹ | kon [7]: 1.5e+07 M⁻¹ s⁻¹ | Kd [8]: 5.3 nM | koff [8]: 0.0063 s⁻¹ | kon [8]: 1.2e+06 M⁻¹ s⁻¹ | Kd [9]: 0.008 nM | koff [9]: 0.00075 s⁻¹ | kon [9]: 9.5e+07 M⁻¹ s⁻¹
B1: ActRIIB-Fc:ALK7-Fc heterodimer (Fc fusion)
chain 1: GRGEAETRECIYYNANWELERTNQSGLERCEGEQDKRLHCYASWRNSSGTIELVKKGCWLDDFNCYDRQECVATEENPQVYFCCCEGNFCNERFTHLPEAGGPEVTYEPPPTAPTGGGTHTCPPCPAPELLGGPSVFLFPPKPKDTLMISRTPEVTCVVVDVSHEDPEVKFNWYVDGVEVHNAKTKPREEQYNSTYRVVSVLTVLHQDWLNGKEYKCKVSNKALPAPIEKTISKAKGQPREPQVYTLPPSRKEMTKNQVSLTCLVKGFYPSDIAVEWESNGQPENNYKTTPPVLKSDGSFFLYSKLTVDKSRWQQGNVFSCSVMHEALHNHYTQKSLSLSPGK
chain 2: GLKCVCLLCDSSNFTCQTEGACWASVMLTNGKEQVIKSCVSLPELNAQVFCHSSNNVTKTECCFTDFCNNITLHLPTASPNAPKLGPMETGGGTHTCPPCPAPELLGGPSVFLFPPKPKDTLMISRTPEVTCVVVDVSHEDPEVKFNWYVDGVEVHNAKTKPREEQYNSTYRVVSVLTVLHQDWLNGKEYKCKVSNKALPAPIEKTISKAKGQPREPQVYTLPPSREEMTKNQVSLTCLVKGFYPSDIAVEWESNGQPENNYDTTPPVLDSDGSFFLYSDLTVDKSRWQQGNVFSCSVMHEALHNHYTQKSLSLSPG
notes: C-terminal Lys optional; also called ActRIIB-Fc:ALK7 heterodimer

binding result [10]: no binding | binding result [11]: no binding | binding result [12]: no binding | binding result [13]: no binding | binding result [14]: no binding | binding result [15]: no binding | binding result [16]: no binding | binding result [17]: no binding | binding result [18]: no binding
B2: ALK2-Fc homodimer (Fc fusion, UniProt Q04771 21-123, looked up, not shown: a dimerising Fc or GST)
chain: MEDEKPKVNPKLYMCVCEGLSCGNEDHCEGQQCFSSLSINDGFHVYQKGCFQVYEQGKMTCKTPPSPGQAVECCQGDWCNRNITAQLPTKGKSFPGTQNFHLE
notes: extracellular domain
